Assay results from IntAct's records for PubMed 26235546.

Legend:
[1] = molecular target: pspf_ecoli pspF (UniProt P37344)
[2] = molecular target: pspf_ecoli pspF (UniProt P37344); remark: listed apart in the source

Chain of pspf_ecoli pspF (P37344 whole entry): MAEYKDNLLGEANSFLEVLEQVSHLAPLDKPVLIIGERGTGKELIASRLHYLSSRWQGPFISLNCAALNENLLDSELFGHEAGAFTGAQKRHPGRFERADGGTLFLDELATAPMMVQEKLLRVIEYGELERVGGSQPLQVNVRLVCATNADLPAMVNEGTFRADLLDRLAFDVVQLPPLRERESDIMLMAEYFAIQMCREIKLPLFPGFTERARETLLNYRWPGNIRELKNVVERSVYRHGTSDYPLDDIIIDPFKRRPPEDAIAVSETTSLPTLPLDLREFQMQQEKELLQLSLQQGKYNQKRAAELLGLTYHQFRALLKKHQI

Substance | effect of a mutation on the interaction [1] | effect of a mutation on the interaction [2]
Phage shock protein A (Escherichia coli (strain K12)) (from UniProt P0AFM6) R59E | with no effect | 
Phage shock protein A (Escherichia coli (strain K12)) (from UniProt P0AFM6) E37A | decreasing interaction strength | with no effect
